{"source": "IntAct's records for PubMed 10887173", "parents": {"B1": {"name": "14-3-3 protein zeta/delta (Homo sapiens), P63104 (parent)", "chain": "MDKNELVQKAKLAEQAERYDDMAACMKSVTEQGAELSNEERNLLSVAYKNVVGARRSSWRVVSSIEQKTEGAEKKQQMAREYREKIETELRDICNDVLSLLEKFLIPNASQAESKVFYLKMKGDYYRYLAEVAAGDDKKGIVDQSQQAYQEAFEISKKEMQPTHPIRLGLALNFSVFYYEILNSPEKACSLAKTAFDEAIAELDTLSEESYKDSTLIMQLLRDNLTLWTSDTQGDEAEAGEGGEN"}}}
{"variants_of": "B1", "conditions": "with vime_chlae VIM"}
{"variant": "MDKNKLVQKAKQQRQAERYDDMAACMKSVTEQGAELSNEERNLLSVAYKNVVGARRSSWRVVSSIEQKTEGAEKKQQMAREQRENIQTELRDICNDVLSLLEKFLIPNASQAESKVFYLKMKGDYYRYLAEVAAGDDKKGIVDQSQQAYQEAFEISKKEMQPTHPIRLGLALNFSVFYYEILNSPEKACSLAKTAFDEAIAELDTLSEESYKDSTLIMQLLRDNLTLWTSDTQGDEAEAGEGGEN", "note": "[E5K;L12Q;A13Q;E14R;Y82Q;K85N;E87Q]", "effect of a mutation on the interaction": "decreasing interaction"}
